Test results reported in publication PMC9674577.

Legend:
[1] = molecular target: T1, FinO45-186 (Escherichia coli (F plasmid)?, UniProt P29367 45-186); assay: FP; […]; ITC: 25 mM HEPES pH 7.3, 150 mM NaCl, 10% glycerol, 1 mM TCEP, 25 C; conditions: protein: recombinant; tags: GST removed by 3C protease; label: 5' FAM; hairpin, 5-nt 3' tail
T1 sequence: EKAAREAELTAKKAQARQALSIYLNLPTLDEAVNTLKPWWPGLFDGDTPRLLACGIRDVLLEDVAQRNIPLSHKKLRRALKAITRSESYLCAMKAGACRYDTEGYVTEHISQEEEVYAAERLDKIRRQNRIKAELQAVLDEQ

[2] = molecular target: RocC24-126 (Legionella pneumophila Paris, UniProt A0A3A6VMJ3 24-126); assay: as above; conditions: protein: recombinant; tags: GST removed by 3C protease; label: 5' FAM; hairpin, 5-nt 3' tail
[3] = molecular target: T2, RocC14-126 (Legionella pneumophila Paris, UniProt A0A3A6VMJ3 14-126); assay: ITC; little if any binding; […]; ITC: 25 mM HEPES pH 7.3, 150 mM NaCl, 10% glycerol, 1 mM TCEP, 25 C; conditions: protein: recombinant; tags: GST removed by 3C protease; hairpin, 5-nt 3' tail
[4] = molecular target: T2, RocC14-126; assay: ITC; 1:1; […]; ITC: 25 mM HEPES pH 7.3, 150 mM NaCl, 10% glycerol, 1 mM TCEP, 25 C; conditions: protein: recombinant; tags: GST removed by 3C protease
[5] = molecular target: RocC1-126 (Legionella pneumophila Paris, UniProt A0A3A6VMJ3 1-126); assay: EMSA; […]; ITC: 25 mM HEPES pH 7.3, 150 mM NaCl, 10% glycerol, 1 mM TCEP, 25 C; conditions: protein: recombinant; tags: GST removed by 3C protease; label: 5' 32P; hairpin, 5-nt 3' tail
[6] = molecular target: T2, RocC14-126; assay: EMSA; similar to 1-126; […]; ITC: 25 mM HEPES pH 7.3, 150 mM NaCl, 10% glycerol, 1 mM TCEP, 25 C; conditions: protein: recombinant; tags: GST removed by 3C protease; label: 5' 32P; hairpin, 5-nt 3' tail

## UGGGUCAAUUGGCGACACACUGAUUGGCCCUUUCU (structured_RNA) [FAM-RocRSL3 (5-nt tail)]
[1]
  binding result: binds
[2]
  binding signal: ~3 fold weaker than RocC1-126

## UGGGUCAAUUGGCGACACACUGAUUGGCCCUUUCU (structured_RNA, 3'-phosphate) [RocRP (RocRSL3 3'-phosphate)]
[3]
  binding result: no binding

## GGCCCUUUCU (ssRNA) [10-nt single-stranded RNA]
[4]
  binding signal: ~19 fold weaker than RocR9bp-tet

## GGGUGGGUCAAUUGGCGACACACUGAUUGGCCCUUUCU (structured_RNA) [RocRSL3 (IVT)]
[5]
  binding result: binds
[6]
  binding result: binds
